Measured values taken from patent US7981602B2, “Photoproteins with enhanced bioluminescence and assays using the same” (AXXAM S.R.L., priority 2005, dated 2011).

Tests used:
[1] = Recombinant photoprotein light emission upon 1 mM calcium injection; type: biochemical; settings: 1 mM CaCl2 (FIG. 6)
Method: For the production of the recombinant protein we followed a small scale protein purification protocol under native conditions. Due to the presence of an N-terminal His tag in our constructs, we decided to purify the expressed proteins on Ni-NTA Spin Columns (Qiagen) following the suppliers' protocol.
In order to evaluate the response of the photoprotein to different calcium concentrations, 0.05 ng/well (96 MTP) of the recombinant protein were charged with Coelenterazine 10 μM overnight at 4° C.
After incubation, different concentrations of CaCl2 were injected and the light released was measured at the Ascent Luminoskan with an integration time of 20 ms for a total time of 10 seconds.
Recombinant photoproteins corresponding to some mutants were produced under native conditions following a small scale purification protocol.
In another experiment, the recombinant photoprotein 25N03b was compared to recombinant Aequorin.

[2] = In vitro transcription and translation, light emission upon calcium injection; type: biochemical; settings: translation mixture, 5 μM CaCl2 injected, luminescence recorded 10 seconds; comparison among the 8 mutants (FIG. 2)
Method: Translation of the photoproteins was carried out in the rabbit reticulocyte cell-free system (TNT Quick coupled kit, Promega), following the general instructions of the supplier. 500 ng of DNA was used for each in vitro transcription/translation reaction mix. The reaction volume (10 μl) included 8 μl of TNT T7 Quick Master Mix, 1.6 μl of DNA, 0.2 μl of the Methionine buffer and 0.2 μl of Coelenterazine (0.5 mM). To this end, 5 μl from each sample of the translation mixture were tested for light emission by the injection of calcium solution and by measuring at the Ascent Luminoskan (Labsystems).
5 μl of the translation mixture were directly mixed with 95 μl of PBS solution in a 96 well plate which was mounted into the Luminometer (Berthold). To trigger photoprotein light emission, a 5 μM CaCl2 solution was injected into the well and luminescence recorded for 10 seconds.

[3] = tested on: CHOK1/mito12mutCly cell line; assay: ATP-stimulated luminescence in CHOK1/mito12mutCly cell line (CCD camera); type: cell-based; settings: ATP stimulation, 2.5 or 5 μM coelenterazine
Method: Clone Selection Process: • CHO-K1 were transfected with pcDNA3Neo^−/MITO-hMutated-clytin or pcDNA3Neo^−/CYTO-hMutated-clytin. • 48 h after transfection, the transfected cells were plated in 10×96 w/p in complete DMEM. • At confluence the 10×96 w/p were duplicated in 10 white plates. 3 1/2 hours before measurements, medium was replaced with 50 μl/well of tyrode (2 mM Ca^2+ and coelenterazine 10 μM). • Positive clones were selected evaluating: • First selection was done lysing cells with TRITON X-100. CCD camera conditions: low sensitivity, integration time 1 second reading for 5 seconds. • Five clones were chosen each diluted in 3×96 w/p. • At confluence the 15×96 w/p were duplicated in 15 white plates. […] CCD camera conditions: low sensitivity, integration time 1 second reading for 30 seconds for the ATP measurement followed by 30 seconds for TRITON X-100. • Four limiting dilutions of the best clone selected were performed, 0.3 cells per well in 10×96 w/p. • The final clone was chosen after the 4th LD selected with ATP 0.25 μM, coelenterazine 5 μM. • Complete optimization of the assay was performed on the best responding clone.
CHO cells are seeded at different cell densities in 384MTP (500, 750, 1,000, 1,500 cells/well) in growth media supplemented as above and measured with a CCD camera 24 hours and 48 hours after plating. […]

Molecule | light emission recorded upon 1 mM CaCl2 injection, compared to recombinant Aequorin [1] | light emission of in vitro translated mutants upon calcium injection [2] | light emission and sensitivity to Ca2+ in cells [3]
25N03b: mutant Clytin photoprotein from random mutagenesis, clone 25N03b (sequence ID no 16) (protein) MADTASKYAVKLRPNFDNPKWVNRHKFMFNFLDINGDGKITLDEIVSKASDDICAKLGATPEQTKRHQDAVEAFFKKIGMDYGKEVEFPAFVDGWKELANYDLKLWSQNKKSLIRDWGEAVFDIFDKDGSGSISLDEWKAYCRISGICSSDEDAEKTFKHCDLDNSGKLDVDEMTRQHLGFWYTLDPNADGLYGNFVP | surprisingly higher | best responding mutant | 
12mutCly: mutant Clytin photoprotein 12mutCly (SEQ ID NO: 19), expressed in CHOK1 cells (protein) MADTASKYAVKLRPNFDNPKWVNRHKFMFNFLDINGDGKITLDEIVSKASDDICAKLEATPEQTKRHQVCVEAFFRGCGMEYGKEIAFPQFLDGWKQLATSELKKWARNEPTLIREWGDAVFDIFDKDGSGSISLDEWKAYGRISGICSSDEDAEKTFKHCDLDNSGKLDVDEMTRQHLGFWYTLDPNADGLYGNFVP |  |  | high light emission and sensitivity to Ca^2+
